Experimental data as given in a protein production outcome set (Wang et al. 2014).

Assay: label from the status in PepcDB records

Row | Sequence | protein production
1 | MSLSMPVPEGADAAAKEMALSDMIPYTVHYDDESVITKDDGLVQVIKLDGLYFESLTAEQIKQFERRRNTVLRSIANSDRGVYVHLIRRKVNLYPAGEGGTWFARRFNQAWRERYNKRSFYVNEIYISIVRNRFRQGAPGILDRAFSLVSGSKITKEDLESFEEQAKDVNEAANLVVQTLSGYGARKLRIQRRPEFVLDRVSRADAQVAVERFKMSWQEFQRSHGHHEVYSRDEVLDYLGEDFSEIGGFLHYLVNLEDERVPVTEMQLDRTLAVSYLDFKMLSNMMAVQNLSGTRAGAMLSMAEWPARTPSRMLDEFLKQPVEYIITQSFFFTDRISAEHDMRQERRRIAVNDREGVAEEDKDEITKGLQDLTRGRSVNGLHHLTMLVHVPATTQFADPIENKRQTIADLDGAVGLLKKAFVNLGVKPVREWFAMETFFWAQLPGQAQHFMGRRGKIKSGNFAGFASLHNFAVGKIDGNLWGPAIMPFETESGTAYYFSFHREMEGMVAGHTAFTADTGAGKTTLLAALIAMGDKAYPRVFWFDNREGAKVFMCAMGGQHTTLTVQGSTGWNPMKLPDTPENRAYLVELLTLMRTCYGGKIVPDDIDRFKKAVHENYALAYPDRRLLNVAWCFGQGELAKDMRVWHGANGIEGANWGVFDNEHDNIDLTNCRHYCYEMRQLIKDGTARPELPVVLSYPFHRIEQSMNGEPFILVLEEGQNLVKHAYWREKIDSYIMQIRRKNGLLVFVTPDAKYLYCETDSIQKQTATKIYLPNGEAKRTDLVDVLGLTPAEYEFVRDTPPENRTFLIRRGNESIKAKFDLSDMPEFIPVLSSNDKGVALMEEIIRELETDDPEQWVPVFMERALAKNTHNLKQKGA | failed
2 | MSLSNTPIELKGSSFTLSVVHLHEAEPEVIRQALEDKIAQAPAFLKHAPVVINVSGLESPVNWPELHKIVTSTGLRIIGVSGCKDASLKVEIDRMGLPLLTEGKEKAVRPAPEGHHHHHH | not failed
3 | MSLSSKLRLQLDAHASIHENVRRLLQFTTSIMEANEEGIRKDIDSEFLHDFRVAIRRSRSILRLLNGVFDPEKTAWMLAGLRELGKRTNDLRDSDVYLLRREEYTSLLPPSLRPALDPFFSDLEADKRLHHRQFCRYLTGREYSGFMTSLKEFIAEGELPDPETAPLAAEPTGDVAAKTIRKALKKVLVHGRRTGSETSDAELHELRIDCKKLRYLLEFFASLFPPKATAQVLRQMKTLQDNLGTFVDLTVQMEFLQSRLETIPADRGGISEAAAIGGLLTTLYRKREKVREHFHEIFSGFDSNETGELFDELLTGLAEGHHHHHH | not failed
4 | MSLSVAIIGPGAVGTTIAYELQQSLPHTTLIGRHAKTITYYTVPHAPAQDIVVKGYEDVTNTFDVIIIAVKTHQLDAVIPHLTYLAHEDTLIILAQNGYGQLEHIPFKNVCQAVVYISGQKKGDVVTHFRDYQLRIQDNALTRQFRDLVQDSQIDIVLEANIQQAIWYKLLVNLGINSITALGRQTVAIMHNPEIRILCRQLLLDGCRVAQAEGLNFSEQTVDTIMTIYQGYPDEMGTSMYYDIVHQQPLEVEAIQGFIYRRAREHNLDTPYLDTIYSFLRAYQQNEGHHHHHH | not failed
5 | MSLSVKILFKNATVFPITSRPFKGDVLVSNGKVEKVGENIEDPDAEIVDLTGKFLFPGFVDAHSHIGLFEEGVGYYYSDGNEATDPVTPHVKALDGFNPQDPAIERALAGGVTSVMIVPGSANPVGGQGSVIKFRSIIVEECIVKDPAGLKMAFGENPKRVYGERKQTPSTRMGTAGVIRDYFTKVKNYMKKKELAQKEGKEFTETDLKMEVGEMVLRKKIPARMHAHRADDILTAIRIAEEFGFNLVIEHGTEAYKISKVLAEKKIPVVVGPLLTFRTKLELKDLTMETIAKLLKDGVLIALMCDHPVIPLEFATVQAATAMRYGAKEEDLLKILTVNPAKILGLEDRIGSIEPGKDADLVVWSGHPFDMKSVVERVYIDGVEVFRREGHHHHHH | not failed
6 | MSLSYRIDVLLFNKFETLDVFGPVEIFGNLQDDFELNFISSDGGLVESSQKVRVETSLYTRDENIEKILFVPGGSGTREKVNDDNFINFIGNMVKESKYIISVCTGSALLSKAGILNGKRATTNKRSFKWVTEQNEDVLWVKEARWVKDGNIYTSSGVSAGIDMTLGFIEDLIGKEKALEISRSIEYFWNEDSNYDPFSKIYGEGHHHHHH | not failed
7 | MSLTASDDLPGVLIVEDGRLAAATLRIQLESLGYDVLGVFDNGEEAVRCAPDLRPDIALVDIMLCGALDGVETAARLAAGCNLPIIFITSSQDVETFQRAKRVNPFGYLAKPVAADTLHRSIEMAIHKKKLEEGHHHHHH | not failed
8 | MSLTLDELDSHLFKCADIIRDAVDPTDYKEYILPLVFYKAISDEYEQEREEIVEEYGEDFADNANLYDVPIVPEGHRWNDLRQESENVDEAINNAFTEFTQANPDLSGIFNANFMEAGGLTDDRLIKLVEHLSTYDLDRDSVPPDMLGEAYMDLVRHFAEEEGKSGGQFFTPPHIVQLCVRLVDDFADGMTFHDPTVGSGGMLTEAAKYYREAQGGDPSKLTFTGQEINPDIAAIARMNLSLHTLNGEIERGDSLASPGFTDGDDLERFDRVLANFPFSADWAKDDLQDDQYGRFDWHTKLPRADRGDYAFIMHIAEQLKEPDCGDESGGKAAIVIPHGVLFRKHEQRYRQPMLENDLVEAIVGLPENLFQNNSIPSAILVLNTDKPADREGEVQFIHAADEAFYEELSNQNELTDDGLDHIVENFDDWTTEERVSRTVGIEEIEENDFNLNIALYVDTTEPEEDIDVNEELAELRELQAEREEIESRMTEHMEALQYE | failed
9 | MSLTQAQGAQQYVNINPPMPSDTPGKIEVLEFFAYTCPHCAAIEPMVEDWAKTAPQDVVLKQVPIAFNAGMKPLQQLYYTLQALERPDLHPKVFTAIHTERKRLFDKKAMGEWAASQGVDRAKFDSVFDSFSVQTQVQRASQLAEAAHIDGTPAFAVGGRYMTSPVLAGNDYAGALKVVDQLIVQSREGHHHHHH | not failed
10 | MSLTQIVNPIIYPSRTIPRRFTAISPFKTLSPQFSRHPPHALSRRLFLPSVSSIWDAITGGGDSNPREAIAAVRRGMQLFRQGDVAGSVAEFDRAIILDPRQKAYLWQRGLSLYYVDRFEEGAEQFRIDVAQNPNDTEESIWCFICEARLHGVDVARTQFLEVGRDSRPVMREAYNLFKNGGDPEKLVNDFSSGQASEYFYASLYAGLYYEAEGKSENAKFHLTAACGSPYGQRSDDYMASLAKVHCLCRNWSSGIL | failed
11 | MSLTVKDILDAIQSPDSTPADIAALPLPESYRAITVHKDETEMFAGLETRDKDPRKSIHLDDVPVPELGPGEALVAVMASSVNYNSVWTSIFEPLSTFGFLERYGRVSDLAKRHDLPYHVIGSDLAGVVLRTGPGVNAWQAGDEVVAHCLSVELESSDGHNDTMLDPEQRIWGFETNFGGLAEIALVKSNQLMPKPDHLSWEEAAAPGLVNSTAYRQLVSRNGAGMKQGDNVLIWGASGGLGSYATQFALAGGANPICVVSSPQKAEICRAMGAEAIIDRNAEGYRFWKDENTQDPKEWKRFGKRIRELTGGEDIDIVFEHPGRETFGASVFVTRKGGTITTCASTSGYMHEYDNRYLWMSLKRIIGSHFANYREAWEANRLIAKGRIHPTLSKVYSLEDTGQAAYDVHRNLHQGKVGVLCLAPEEGLGVRDREKRAQHLDAINRFRNEGHHHHHH | not failed
12 | MSLVSVIILASGNSQRMGQNKLFLKYQGKTFLEHTLTLVNQLDVLERILVVSPENQPAFPLPKNIQLILNHQWQEGQSSSIRLGTEQARGAGYLYLPSDQPLLTPKMLQLVLDKCQRNKIVVPLQKDGCPSSPVLFGNQFRQELLTLTGEKGGRMIYERFPEAVQMLRIATPGRLKDIDTPEEYQKLIQETNSLEHHHHHH | failed
13 | MSLVVCQPQINESFYQKDDMGGLSFLQSMSDITSIAQTKEDKAYVHPMEKRSVSKLNEKSLEMCTESLGTETGSESGDELSLLAFEATTTPRAPPRQLKPQEDTNLPDKTPPMSRNNSFPPPIKFVEDSKYNRMVRWLGEDGRIVVQAIRVSSPPSCFVSERGEGRLRLILTSESSLLSHNHEEEEEEETEEGIDEETSENLEGKSGNKKFSRFSRRCKENGREPKPMLTWKQQQFWVAT | failed
14 | MSLYKLYSMQRSGNSYKVRLALALLDAPYRAVEVDILRGESRTPDFLAKNPSGQVPLLETAPGRYLAESNAILWYLAVGTSLAPDTRMDRAEALQWMFFEQHALEPNIGSAYFWLCLVKGGRDLQTHALEDWLERGYAALQVMENHLKTNDYFAAGQLTIADIALYGYTHVADQCDFDLSTFPAVNAWLRRVEQTPGFITMDWTPETIAADPTSFAAEGHHHHHH | not failed
